B1: monoclonal antibody #127 (antibody, human IgG1, kappa, V domains shown)
VH: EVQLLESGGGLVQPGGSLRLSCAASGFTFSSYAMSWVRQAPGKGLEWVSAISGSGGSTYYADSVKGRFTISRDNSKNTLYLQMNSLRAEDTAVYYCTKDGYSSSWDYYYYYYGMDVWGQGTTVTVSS
VL: DIQMTQSPSSLSASVGDRVTITCRASQSVSSYLAWYQQKPGKAPKLLIYEASNLQAGVPSRFSGSGSGTDFTLTINSLQPEDFATYYCLQHNSNPLTFGQGTKLEIKT
notes: Human IgG from the ADLib system (DT40 cell library); kappa light chain
B2: monoclonal antibody #213-001 (antibody, human IgG1, kappa, V domains shown)
VH: EVQLVQSGAEVKKPGSSVKVSCKASGGTFSSYAISWVRQAPGQGLEWMGGIIPIFGRANYAQKFQGRVTITADESTSTAYMELSSLRSEDTAVYYCASLVTDYWGQGTLVTVSS
VL: DIQMTQSPSSLSASTGDRVTITCRASQGISSYLAWYQQKPGKAPKLLIYAASTLQSGVPSRFSGSGSGTDFTLTISSLQPEDFATYYCQQANSFPITFGQGTRLEIKT
notes: Human IgG from the ADLib system; kappa light chain

Biological target: T1, human HMGB1 protein (human, UniProt P09429 1-215)
T1 construct: Non-denatured protein, used as analyte in SPR and added to neurons in the MARCKS phosphorylation assay; also called High Mobility Group Box 1
T1 sequence (looked up): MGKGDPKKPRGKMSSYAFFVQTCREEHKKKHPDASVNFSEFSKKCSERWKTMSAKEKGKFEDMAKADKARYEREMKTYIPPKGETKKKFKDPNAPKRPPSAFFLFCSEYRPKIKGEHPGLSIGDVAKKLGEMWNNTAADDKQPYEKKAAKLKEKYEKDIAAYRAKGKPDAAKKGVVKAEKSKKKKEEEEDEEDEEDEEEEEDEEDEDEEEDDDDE
Test: SPR, Biacore T100, antibody immobilized on the chip, human HMGB1 as analyte
Description: The interaction between the human monoclonal antibody group of the present invention and human HMGB1 protein was compared and examined using SPR. Specifically, using a sensor chip on which each human monoclonal antibody of the present invention was immobilized and human HMGB1 protein as an analyte, the interaction was measured over time with a surface plasmon resonance sensor (“Biacore T100”, manufactured by GE healthcare), to calculate an equilibrium dissociation constant (KD value) as an index of the antibody affinity.

Binder | Kd [nM]
B1 | 0.0217
B2 | 5.54

Reference: US20230038521A1 (INSTITUTE OF SCIENCE TOKYO, published 2023)
